One substance from PMC1914068 can be followed below.

The assay has as its target LexA-TAP-Vpr (yeast two-hybrid bait) (HIV-1) (UniProt P05928). Description: two-hybrid; LexA baits (pEG202) and B42 preys (pJG4-5) in S. cerevisiae EGY48; β-galactosidase activity by the o-nitrophenyl-β-D-galactopyranoside method.

In turn, “Vpr as yeast two-hybrid fusion (LexA-Vpr bait and B42-Vpr prey) (from UniProt P05928 1-96) (natural protein)” returned a fold weaker than dimerization of wild-type Vpr (β-galactosidase activity) of 3 fold.
